Measured values: the supplement of paper PMC6757056
± gives the standard deviation of the averaged measurements.

B1: library; a variant is named by its letters at N, in order (parent)
chain: GCUGUCACCGGUGCUUGGUACGUUAUAUUCAGCCGGUCUGAUGAGUCUNNNNNNAGACGAAACAGC

Columns and labels:
[1] = variants of: B1; assay: FACS-Seq fitted mean relative fluorescence mCherry/BFP without ligand (log10 relative fluorescence); HEK293T overexpressing SLC46A1; higher = higher reporter protein expression; settings: without (6R,S)-folinic acid; ligand present: no
Summary of the method: (§1)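 Fluorescence comes from a normal fit to bin counts, normalized against controls. HEK293T libraries lentivirally given a ribozyme-switch mCherry reporter and an EF1α-BFP marker were enriched, incubated 48 h with or without ligand, and sorted by mCherry/BFP into 6 bins. Bin genomic DNA was PCR-amplified, barcoded and sequenced on MiSeq. The log10(mCherry/BFP) mean was scaled to five spiked-in control ribozymes.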

[2] = variants of: B1; assay: normalized RNA/DNA level without ligand (relative to sTRSVctl = 100) (log10 (% of sTRSVctl)); HEK293T overexpressing SLC46A1; higher = less ribozyme self-cleavage, higher mRNA level; settings: without (6R,S)-folinic acid; ligand present: no
Description: (§2)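 Hammerhead (sTRSV) ribozyme switch libraries with a ligand aptamer grafted on stem I and a randomized N4-6 loop II, cloned into the 3' UTR of mCherry and transiently transfected into HEK293T cells; RNA-Seq 72 h post transfection with ligand added 1 h before transfection; RNA read count / plasmid DNA read count normalized to the non-cleaving sTRSVctl (x100), log10; sequences with >100 DNA reads. FACS-Seq: lentiviral library sorted into 6 bins after 48 h ligand, log-normal fit mean of mCherry/BFP scaled to controls. Printed sequences are partial switch sequences.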

[3] = variants of: B1; assay: FACS-Seq fitted mean relative fluorescence mCherry/BFP with ligand (log10 relative fluorescence); HEK293T overexpressing SLC46A1; ligand concentration (+) FACS-Seq: 6 mM; higher = higher reporter protein expression; settings: with (6R,S)-folinic acid; ligand present: yes
Summary of the method: as §1

[4] = variants of: B1; assay: normalized RNA/DNA level with ligand (relative to sTRSVctl = 100) (log10 (% of sTRSVctl)); HEK293T overexpressing SLC46A1; ligand concentration (+) RNA-Seq: 6 mM; higher = less ribozyme self-cleavage, higher mRNA level; settings: with (6R,S)-folinic acid; ligand present: yes
Description: as §2

Variant	FACS-Seq fitted mean (log10) [1]	normalized RNA/DNA level without ligand (log10) [2]	FACS-Seq fitted mean (log10) [3]	normalized RNA/DNA level with ligand (log10) [4]
AAGGUG	0.462 ± 0.049	1.827 ± 0.011	0.597 ± 0.51	1.98 ± 0.04
AAGGUC	0.209 ± 0.03	2.03 ± 0.013	0.178 ± 0.099	2 ± 0.027
AAGGUA	0.34 ± 0.014	1.74 ± 0.024	0.228 ± 0.14	1.83 ± 0.025
GAUGAC	0.579 ± 0.11	1.95 ± 0.025	0.593 ± 0.085	2.01 ± 0.043
GAUGAG	0.483 ± 0.0054	1.858 ± 0.0066	0.624 ± 0.12	1.978 ± 0.015
GAUGAU	0.196 ± 0.072	1.935 ± 0.019	0.199 ± 0.049	1.98 ± 0.034
GAUGAA	0.212 ± 0.041	1.966 ± 0.012	0.37 ± 0.0079	1.989 ± 0.017
UAGCGG	-0.127 ± 0.027	1.671 ± 0.0027	0.217 ± 0.06	1.96 ± 0.023
UAGUAG	0.108 ± 0.076	1.68 ± 0.011	0.525 ± 0.14	1.93 ± 0.036
UAGUAU	0.347 ± 0.059	1.931 ± 0.0038	0.553 ± 0.11	2.006 ± 0.018
UAGUAA	0.0937 ± 0.063	1.937 ± 0.009	0.531 ± 0.11	1.995 ± 0.016
GAGGGA	0.161 ± 0.042	1.969 ± 0.017	0.0592 ± 0.019	2.04 ± 0.028
GAGGGU	0.338 ± 0.027	2.001 ± 0.016	0.556 ± 0.037	2.04 ± 0.041
AAGGCC	0.18 ± 0.073	2.059 ± 0.012	0.288 ± 0.18	2.04 ± 0.081
CAGCCU	0.13 ± 0.12	2.052 ± 0.016	-0.235 ± 0.22	2.05 ± 0.061
GAGUUG	0.407 ± 0.032	1.968 ± 0.0093	0.387 ± 0.15	2.03 ± 0.039
UAGGUA	0.246 ± 0.04	1.878 ± 0.0067	0.0784 ± 0.099	1.98 ± 0.031
UAGGUG	0.228 ± 0.037	1.68 ± 0.017	0.559 ± 0.21	1.96 ± 0.033
GAUACG	0.356 ± 0.069	1.9665 ± 0.00032	0.274 ± 0.0064	2 ± 0.0056
GAUACA	0.251 ± 0.036	1.974 ± 0.0043	0.585 ± 0.09	1.98 ± 0.047
GAGGCA	0.286 ± 0.031	2.017 ± 0.0044	0.296 ± 0.25	2.05 ± 0.026
GAGCUA	0.516 ± 0.2	2.0209 ± 0.0014	0.415 ± 0.15	2.04 ± 0.035
UAUCCG	0.17 ± 0.01	1.84 ± 0.017	0.376 ± 0.25	1.993 ± 0.019
UAUGAC	0.193 ± 0.17	1.971 ± 0.01	0.413 ± 0.083	2 ± 0.053

Variant	FACS-Seq fitted mean (log10) [1]	normalized RNA/DNA level without ligand (log10) [2]	FACS-Seq fitted mean (log10) [3]	normalized RNA/DNA level with ligand (log10) [4]
UAUGAU	0.263 ± 0.038	1.911 ± 0.013	0.486 ± 0.099	1.97 ± 0.027
UAUGAG	0.159 ± 0.026	1.609 ± 0.0041	0.709 ± 0.075	1.9 ± 0.045
CAGUAA	0.289 ± 0.13	1.955 ± 0.0021	0.23 ± 0.14	1.99 ± 0.023
GAGGUG	0.324 ± 0.045	1.967 ± 0.0026	0.505 ± 0.25	2.04 ± 0.043
GAGGUU	-0.16 ± 0.053	1.991 ± 0.0089	-0.382 ± 0.15	2 ± 0.027
GAGGUA	0.345 ± 0.029	1.844 ± 0.015	0.341 ± 0.17	1.92 ± 0.033
CAUGAA	-0.00657 ± 0.027	1.954 ± 0.014	-0.0505 ± 0.07	1.98 ± 0.045
CAUAUU	0.434 ± 0.11	1.982 ± 0.0059	0.246 ± 0.17	1.98 ± 0.025
CAUAUC	-0.161 ± 0.056	2.078 ± 0.0032	-0.426 ± 0.011	2.03 ± 0.034
CAUAUG	0.419 ± 0.028	2.026 ± 0.0042	0.496 ± 0.28	2.01 ± 0.023
AAGUCG	-0.00669 ± 0.0044	1.978 ± 0.0045	0.183 ± 0.19	2.0217 ± 0.00076
UAGCCG	0.635 ± 0.13	1.86 ± 0.036	0.409 ± 0.069	1.99 ± 0.041
UAGCCU	0.641 ± 0.044	2.02 ± 0.045	0.19 ± 0.0051	2.04 ± 0.037
CAGCUG	0.118 ± 0.025	2.073 ± 0.01	0.1 ± 0.12	2.06 ± 0.022
CAGUCG	0.4924 ± 0.0036	2.022 ± 0.01	0.422 ± 0.19	2.037 ± 0.018
CAGUUC	-0.0369 ± 0.035	2.027 ± 0.017	-0.16 ± 0.081	1.983 ± 0.019
CAGUUA	0.197 ± 0.022	1.95 ± 0.02	0.573 ± 0.13	1.99 ± 0.038
AAGCAU	0.218 ± 0.067	1.953 ± 0.019	0.102 ± 0.024	2.01 ± 0.039
AAGCAA	0.352 ± 0.078	1.964 ± 0.015	0.361 ± 0.1	1.994 ± 0.012
GAGCCG	0.537 ± 0.069	2.047 ± 0.0093	0.419 ± 0.15	2.03 ± 0.05
GAGCCU	0.306 ± 0.041	2.076 ± 0.012	0.5133 ± 0.00087	2.062 ± 0.0057
GAGCCA	0.191 ± 0.0078	2.023 ± 0.02	0.281 ± 0.24	2.02 ± 0.047
AAGUUA	0.382 ± 0.14	1.973 ± 0.0048	0.443 ± 0.016	2.01 ± 0.031
AAGUUG	0.479 ± 0.061	1.914 ± 0.013	0.582 ± 0.24	2.02 ± 0.054

Variant	FACS-Seq fitted mean (log10) [1]	normalized RNA/DNA level without ligand (log10) [2]	FACS-Seq fitted mean (log10) [3]	normalized RNA/DNA level with ligand (log10) [4]
CAUCUC	0.717 ± 0.072	2.111 ± 0.017	0.619 ± 0.56	2.08 ± 0.072
AAGGAG	0.211 ± 0.081	1.789 ± 0.017	0.263 ± 0.14	2 ± 0.046
AAGGAU	0.466 ± 0.0051	1.917 ± 0.0072	0.53 ± 0.073	1.966 ± 0.013
AAGGAA	0.513 ± 0.14	1.937 ± 0.01	0.429 ± 0.1	2 ± 0.023
GAGCGA	0.146 ± 0.064	1.997 ± 0.0086	0.145 ± 0.15	2.035 ± 0.011
GAUAGA	0.454 ± 0.051	1.959 ± 0.0082	0.537 ± 0.22	2 ± 0.021
GAUAGC	0.145 ± 0.061	1.962 ± 0.017	0.257 ± 0.081	2.022 ± 0.015
GAUAGU	0.846 ± 0.085	1.963 ± 0.018	0.563 ± 0.078	2 ± 0.022
GAUAGG	0.0382 ± 0.037	1.921 ± 0.013	0.234 ± 0.004	2.01 ± 0.022
CAGCAU	0.411 ± 0.13	1.96 ± 0.014	0.546 ± 0.21	2.01 ± 0.027
AAGUAG	0.445 ± 0.099	1.89 ± 0.021	0.443 ± 0.18	1.987 ± 0.018
AAGUAA	0.225 ± 0.044	1.94 ± 0.021	0.18 ± 0.26	2 ± 0.043
GAUGCG	0.444 ± 0.16	1.941 ± 0.011	0.693 ± 0.15	2.02 ± 0.07
GAUGCA	0.5601 ± 0.0038	2.009 ± 0.0054	0.5189 ± 0.004	2.04 ± 0.035
AAGCCU	0.313 ± 0.032	2.056 ± 0.015	0.326 ± 0.052	2.03 ± 0.027
AAUGCA	0.514 ± 0.0055	1.99 ± 0.03	0.45 ± 0.072	2.02 ± 0.034
AAGAUU	0.318 ± 0.11	2.007 ± 0.0072	0.312 ± 0.032	2.02 ± 0.022
UAGUGC	0.371 ± 0.0073	1.949 ± 0.011	0.493 ± 0.034	2 ± 0.051
UAGUGG	-0.0676 ± 0.055	1.56 ± 0.021	0.623 ± 0.023	1.89 ± 0.046
UAGUUG	0.194 ± 0.067	1.768 ± 0.016	0.229 ± 0.0032	1.96 ± 0.021
UAUCGG	0.113 ± 0.039	1.69 ± 0.028	0.6479 ± 0.00075	1.94 ± 0.028
UAUCAG	0.285 ± 0.25	1.84 ± 0.024	0.328 ± 0.29	1.95 ± 0.025
UAUCAU	0.312 ± 0.043	1.954 ± 0.0086	-0.0472 ± 0.12	1.99 ± 0.041
